Data on one substance can be found in patent US20130344582.

In this series the test system is collagen IV (BD Biosciences).

For the substance activated MMP-9 (Chemicon), the “alignment of liquid crystal on the surface (zymography; enzymatic digestion of the protein substrate)” value was “after 30 minutes incubation with 1 pg MMP-9, the collagen IV has been digested and the liquid crystals align on the exposed SAM”.
